According to publication PMC2997501, “Different Residues on the Surface of the Methanothermobacter thermautotrophicus MCM Helicase Interact with Single- and Double-Stranded DNA” (Archaea, 2010):

Assays:
Assay in all cases: filter binding; 10 mM Mg2+, no ATP; better than wild-type; 25 mM Hepes-NaOH pH 7.5, 2 mM DTT, 10 mM MgCl2, 100 ug/ml BSA, 50 fmol 32P-DNA in 20 ul, 10/30/90 nM MCM monomer (25 nM for the ATP test), 60 C, 10 min; nitrocellulose filter washed with 20 mM Tris-HCl pH 7.5
Details in all cases: protein: recombinant; tags: C-terminal His6; chain copies: 6; label: 32P (T4 PNK, 5' end)
[1] = target: T1, MCM P210G (Methanothermobacter thermautotrophicus, UniProt O27798 1-666, P210G)
T1 sequence: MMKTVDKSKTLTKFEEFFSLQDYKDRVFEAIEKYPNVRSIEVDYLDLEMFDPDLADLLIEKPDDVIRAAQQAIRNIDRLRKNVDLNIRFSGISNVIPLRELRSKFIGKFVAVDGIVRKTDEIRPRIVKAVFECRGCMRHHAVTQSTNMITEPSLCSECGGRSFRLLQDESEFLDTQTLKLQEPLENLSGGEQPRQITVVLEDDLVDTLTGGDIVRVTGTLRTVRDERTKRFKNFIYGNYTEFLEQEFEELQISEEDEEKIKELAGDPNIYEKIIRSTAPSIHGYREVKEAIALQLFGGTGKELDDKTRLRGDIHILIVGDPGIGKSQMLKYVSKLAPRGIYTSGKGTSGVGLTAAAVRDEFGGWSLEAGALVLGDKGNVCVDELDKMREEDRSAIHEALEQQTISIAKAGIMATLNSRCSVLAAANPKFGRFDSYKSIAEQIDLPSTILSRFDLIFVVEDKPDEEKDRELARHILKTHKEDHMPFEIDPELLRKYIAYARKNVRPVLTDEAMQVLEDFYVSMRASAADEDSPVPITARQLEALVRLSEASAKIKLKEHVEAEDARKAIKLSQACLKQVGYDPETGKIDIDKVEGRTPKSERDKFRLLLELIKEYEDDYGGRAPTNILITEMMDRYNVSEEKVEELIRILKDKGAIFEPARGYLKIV

[2] = target: T2, MCM G211A (Methanothermobacter thermautotrophicus, UniProt O27798 1-666, G211A)
T2 sequence: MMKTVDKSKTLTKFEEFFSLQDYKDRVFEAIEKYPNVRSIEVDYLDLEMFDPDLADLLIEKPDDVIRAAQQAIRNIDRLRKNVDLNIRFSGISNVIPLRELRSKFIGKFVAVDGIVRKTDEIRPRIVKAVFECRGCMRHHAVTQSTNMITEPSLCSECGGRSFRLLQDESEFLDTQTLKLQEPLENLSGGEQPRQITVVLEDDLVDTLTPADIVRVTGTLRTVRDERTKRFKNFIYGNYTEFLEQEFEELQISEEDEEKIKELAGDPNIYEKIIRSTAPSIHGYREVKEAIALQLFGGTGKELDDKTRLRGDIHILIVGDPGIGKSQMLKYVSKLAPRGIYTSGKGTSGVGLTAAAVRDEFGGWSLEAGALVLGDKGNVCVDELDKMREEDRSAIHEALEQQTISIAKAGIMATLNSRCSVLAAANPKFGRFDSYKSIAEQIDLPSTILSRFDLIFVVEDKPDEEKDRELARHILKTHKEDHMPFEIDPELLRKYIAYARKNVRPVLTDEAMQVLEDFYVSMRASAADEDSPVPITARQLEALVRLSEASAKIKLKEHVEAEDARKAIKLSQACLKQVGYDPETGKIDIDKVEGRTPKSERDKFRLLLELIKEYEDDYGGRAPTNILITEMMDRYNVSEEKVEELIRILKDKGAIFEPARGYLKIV

[3] = target: T3, MCM PG210,211GA (Methanothermobacter thermautotrophicus, UniProt O27798 1-666, P210G;G211A)
T3 sequence: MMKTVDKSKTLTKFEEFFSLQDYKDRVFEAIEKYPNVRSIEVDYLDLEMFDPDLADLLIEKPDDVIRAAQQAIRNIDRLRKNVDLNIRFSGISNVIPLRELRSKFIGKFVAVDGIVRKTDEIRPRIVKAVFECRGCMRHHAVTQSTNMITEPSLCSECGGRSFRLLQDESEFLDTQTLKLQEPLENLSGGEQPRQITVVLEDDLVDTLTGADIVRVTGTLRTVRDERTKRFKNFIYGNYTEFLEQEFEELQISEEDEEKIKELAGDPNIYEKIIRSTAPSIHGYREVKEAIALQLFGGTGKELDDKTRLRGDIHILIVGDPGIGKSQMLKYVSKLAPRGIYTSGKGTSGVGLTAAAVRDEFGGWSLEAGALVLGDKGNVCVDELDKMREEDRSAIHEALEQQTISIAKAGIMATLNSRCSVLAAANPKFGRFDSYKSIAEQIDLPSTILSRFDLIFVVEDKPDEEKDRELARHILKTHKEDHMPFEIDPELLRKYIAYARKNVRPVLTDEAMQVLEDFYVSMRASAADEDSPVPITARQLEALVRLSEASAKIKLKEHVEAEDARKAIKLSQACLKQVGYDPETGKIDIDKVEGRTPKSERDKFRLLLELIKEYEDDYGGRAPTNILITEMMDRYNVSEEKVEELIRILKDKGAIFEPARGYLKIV

Measured: binding result

GCAGATAACAGTTGTCCTGGAGAACGACCTGGTTGACACCCTCACACCC (ssDNA) [49-mer ssDNA]
binds: all assays above
